Experiments:
[1] = Western blot of transfected AR42J cells; settings: glycan lost; control: wild type
[2] = immunofluorescence, anti-myc and anti-calnexin, AR42J cells; settings: glycan lost; control: wild type

B1: somatostatin receptor type 2 (SSTR2): N9Q (protein)
parent chain: MELTSEQFNGSQVWIPSPFDLNGSLGPSNGSNQTEPYYDMTSNAVLTFIYFVVCVVGLCGNTLVIYVILRYAKMKTITNIYILNLAIADELFMLGLPFLAMQVALVHWPFGKAICRVVMTVDGINQFTSIFCLTVMSIDRYLAVVHPIKSAKWRRPRTAKMINVAVWGVSLLVILPIMIYAGLRSNQWGRSSCTINWPGESGAWYTGFIIYAFILGFLVPLTIICLCYLFIIIKVKSSGIRVGSSKRKKSEKKVTRMVSIVVAVFIFCWLPFYIFNVSSVSVAISPTPALKGMFDFVVILTYANSCANPILYAFLSDNFKKSFQNVLCLVKVSGAEDGERSDSKQDKSRLNETTETQRTLLNGDLQTSI
- expression_or_secretion [1]: decreases
- localisation_or_trafficking [2]: changes
